Experiments:
[1] = target: Flag-tagged EspM2 (EHEC O157:H7 Sakai)
[2] = target: Flag-tagged EspM2 (EHEC O157:H7 Sakai); remark: listed apart in the source

GST-EspO1-2 W77H (natural protein) was tested, and the percent of HeLa cells with stress fibers when transfected with EspM2 and EspO1-2 W77H expression vectors (38% with the EspM2 vector only) (% of transfected cells) [1] was 20.
Work on GST-EspO1-2 W77A (natural protein) yielded a percent of HeLa cells with stress fibers when transfected with EspM2 and EspO1-2 W77A expression vectors (38% with the EspM2 vector only) (% of transfected cells) [1] of 20.
Work on “glutathione-S-transferase (GST)-tagged EspO1-2 (natural protein)” yielded a percent of HeLa cells with stress fibers when transfected with both EspM2 and EspO1-2 expression vectors (38% with the EspM2 vector only), 72 h post-transfection (% of transfected cells) [2] of 10.

Source: paper PMC3568036
